# Experimental data: publication PMC11703740, “Disparate molecular mechanisms in cardiac ryanodine receptor channelopathies” (Frontiers in Molecular Biosciences, 2024)
# B1: NT^WT (human RyR2 residues 1-906, cMyc-tagged) (domain or fragment, UniProt Q92736 1-906, looked up)
# chain: MADGGEGEDEIQFLRTDDEVVLQCTATIHKEQQKLCLAAEGFGNRLCFLESTSNSKNVPPDLSICTFVLEQSLSVRALQEMLANTVEKSEGQVDVEKWKFMMKTAQGGGHRTLLYGHAILLRHSYSGMYLCCLSTSRSSTDKLAFDVGLQEDTTGEACWWTIHPASKQRSEGEKVRVGDDLILVSVSSERYLHLSYGNGSLHVDAAFQQTLWSVAPISSGSEAAQGYLIGGDVLRLLHGHMDECLTVPSGEHGEEQRRTVHYEGGAVSVHARSLWRLETLRVAWSGSHIRWGQPFRLRHVTTGKYLSLMEDKNLLLMDKEKADVKSTAFTFRSSKEKLDVGVRKEVDGMGTSEIKYGDSVCYIQHVDTGLWLTYQSVDVKSVRMGSIQRKAIMHHEGHMDDGISLSRSQHEESRTARVIRSTVFLFNRFIRGLDALSKKAKASTVDLPIESVSLSLQDLIGYFHPPDEHLEHEDKQNRLRALKNRQNLFQEEGMINLVLECIDRLHVYSSAAHFADVAGREAGESWKSILNSLYELLAALIRGNRKNCAQFSGSLDWLISRLERLEASSGILEVLHCVLVESPEALNIIKEGHIKSIISLLDKHGRNHKVLDVLCSLCVCHGVAVRSNQHLICDNLLPGRDLLLQTRLVNHVSSMRPNIFLGVSEGSAQYKKWYYELMVDHTEPFVTAEATHLRVGWASTEGYSPYPGGGEEWGGNGVGDDLFSYGFDGLHLWSGCIARTVSSPNQHLLRTDDVISCCLDLSAPSISFRINGQPVQGMFENFNIDGLFFPVVSFSAGIKVRFLLGGRHGEFKFLPPPGYAPCYEAVLPKEKLKVEHSREYKQERTYTRDLLGPTVSLTQAAFTPIPVDTSQIVLPPHLERIREKLAENIHELWVMNKIELGWQYGP
# notes: cardiac ryanodine receptor (RyR2), human, N-terminus residues 1-906; also called wild-type RyR2 N-terminus; RyR2-NT; source: HEK293, transiently transfected, in cell homogenate (cross-linking) or CHAPS-solubilized lysate (co-IP)
# B2: NT^R169L (human RyR2 residues 1-906, cMyc-tagged, R169L) (domain or fragment, UniProt Q92736 1-906, looked up)
# chain: MADGGEGEDEIQFLRTDDEVVLQCTATIHKEQQKLCLAAEGFGNRLCFLESTSNSKNVPPDLSICTFVLEQSLSVRALQEMLANTVEKSEGQVDVEKWKFMMKTAQGGGHRTLLYGHAILLRHSYSGMYLCCLSTSRSSTDKLAFDVGLQEDTTGEACWWTIHPASKQLSEGEKVRVGDDLILVSVSSERYLHLSYGNGSLHVDAAFQQTLWSVAPISSGSEAAQGYLIGGDVLRLLHGHMDECLTVPSGEHGEEQRRTVHYEGGAVSVHARSLWRLETLRVAWSGSHIRWGQPFRLRHVTTGKYLSLMEDKNLLLMDKEKADVKSTAFTFRSSKEKLDVGVRKEVDGMGTSEIKYGDSVCYIQHVDTGLWLTYQSVDVKSVRMGSIQRKAIMHHEGHMDDGISLSRSQHEESRTARVIRSTVFLFNRFIRGLDALSKKAKASTVDLPIESVSLSLQDLIGYFHPPDEHLEHEDKQNRLRALKNRQNLFQEEGMINLVLECIDRLHVYSSAAHFADVAGREAGESWKSILNSLYELLAALIRGNRKNCAQFSGSLDWLISRLERLEASSGILEVLHCVLVESPEALNIIKEGHIKSIISLLDKHGRNHKVLDVLCSLCVCHGVAVRSNQHLICDNLLPGRDLLLQTRLVNHVSSMRPNIFLGVSEGSAQYKKWYYELMVDHTEPFVTAEATHLRVGWASTEGYSPYPGGGEEWGGNGVGDDLFSYGFDGLHLWSGCIARTVSSPNQHLLRTDDVISCCLDLSAPSISFRINGQPVQGMFENFNIDGLFFPVVSFSAGIKVRFLLGGRHGEFKFLPPPGYAPCYEAVLPKEKLKVEHSREYKQERTYTRDLLGPTVSLTQAAFTPIPVDTSQIVLPPHLERIREKLAENIHELWVMNKIELGWQYGP
# notes: cardiac ryanodine receptor (RyR2), human, N-terminus residues 1-906 with the CPVT mutation R169L; Mutation made by site-directed mutagenesis in the NT^WT plasmid; a variant reported in patients; also called type I variant; source: HEK293, transiently transfected, in cell homogenate (cross-linking) or CHAPS-solubilized lysate (co-IP)
# B3: NT^A77T (human RyR2 residues 1-906, cMyc-tagged, A77T) (domain or fragment, UniProt Q92736 1-906, looked up)
# chain: MADGGEGEDEIQFLRTDDEVVLQCTATIHKEQQKLCLAAEGFGNRLCFLESTSNSKNVPPDLSICTFVLEQSLSVRTLQEMLANTVEKSEGQVDVEKWKFMMKTAQGGGHRTLLYGHAILLRHSYSGMYLCCLSTSRSSTDKLAFDVGLQEDTTGEACWWTIHPASKQRSEGEKVRVGDDLILVSVSSERYLHLSYGNGSLHVDAAFQQTLWSVAPISSGSEAAQGYLIGGDVLRLLHGHMDECLTVPSGEHGEEQRRTVHYEGGAVSVHARSLWRLETLRVAWSGSHIRWGQPFRLRHVTTGKYLSLMEDKNLLLMDKEKADVKSTAFTFRSSKEKLDVGVRKEVDGMGTSEIKYGDSVCYIQHVDTGLWLTYQSVDVKSVRMGSIQRKAIMHHEGHMDDGISLSRSQHEESRTARVIRSTVFLFNRFIRGLDALSKKAKASTVDLPIESVSLSLQDLIGYFHPPDEHLEHEDKQNRLRALKNRQNLFQEEGMINLVLECIDRLHVYSSAAHFADVAGREAGESWKSILNSLYELLAALIRGNRKNCAQFSGSLDWLISRLERLEASSGILEVLHCVLVESPEALNIIKEGHIKSIISLLDKHGRNHKVLDVLCSLCVCHGVAVRSNQHLICDNLLPGRDLLLQTRLVNHVSSMRPNIFLGVSEGSAQYKKWYYELMVDHTEPFVTAEATHLRVGWASTEGYSPYPGGGEEWGGNGVGDDLFSYGFDGLHLWSGCIARTVSSPNQHLLRTDDVISCCLDLSAPSISFRINGQPVQGMFENFNIDGLFFPVVSFSAGIKVRFLLGGRHGEFKFLPPPGYAPCYEAVLPKEKLKVEHSREYKQERTYTRDLLGPTVSLTQAAFTPIPVDTSQIVLPPHLERIREKLAENIHELWVMNKIELGWQYGP
# notes: cardiac ryanodine receptor (RyR2), human, N-terminus residues 1-906 with the patient mutation A77T; Mutation made by site-directed mutagenesis in the NT^WT plasmid; a variant reported in patients; also called type II^inter variant; source: HEK293, transiently transfected, in cell homogenate (cross-linking) or CHAPS-solubilized lysate (co-IP)
# B4: NT^G357S (human RyR2 residues 1-906, cMyc-tagged, G357S) (domain or fragment, UniProt Q92736 1-906, looked up)
# chain: MADGGEGEDEIQFLRTDDEVVLQCTATIHKEQQKLCLAAEGFGNRLCFLESTSNSKNVPPDLSICTFVLEQSLSVRALQEMLANTVEKSEGQVDVEKWKFMMKTAQGGGHRTLLYGHAILLRHSYSGMYLCCLSTSRSSTDKLAFDVGLQEDTTGEACWWTIHPASKQRSEGEKVRVGDDLILVSVSSERYLHLSYGNGSLHVDAAFQQTLWSVAPISSGSEAAQGYLIGGDVLRLLHGHMDECLTVPSGEHGEEQRRTVHYEGGAVSVHARSLWRLETLRVAWSGSHIRWGQPFRLRHVTTGKYLSLMEDKNLLLMDKEKADVKSTAFTFRSSKEKLDVGVRKEVDGMGTSEIKYSDSVCYIQHVDTGLWLTYQSVDVKSVRMGSIQRKAIMHHEGHMDDGISLSRSQHEESRTARVIRSTVFLFNRFIRGLDALSKKAKASTVDLPIESVSLSLQDLIGYFHPPDEHLEHEDKQNRLRALKNRQNLFQEEGMINLVLECIDRLHVYSSAAHFADVAGREAGESWKSILNSLYELLAALIRGNRKNCAQFSGSLDWLISRLERLEASSGILEVLHCVLVESPEALNIIKEGHIKSIISLLDKHGRNHKVLDVLCSLCVCHGVAVRSNQHLICDNLLPGRDLLLQTRLVNHVSSMRPNIFLGVSEGSAQYKKWYYELMVDHTEPFVTAEATHLRVGWASTEGYSPYPGGGEEWGGNGVGDDLFSYGFDGLHLWSGCIARTVSSPNQHLLRTDDVISCCLDLSAPSISFRINGQPVQGMFENFNIDGLFFPVVSFSAGIKVRFLLGGRHGEFKFLPPPGYAPCYEAVLPKEKLKVEHSREYKQERTYTRDLLGPTVSLTQAAFTPIPVDTSQIVLPPHLERIREKLAENIHELWVMNKIELGWQYGP
# notes: cardiac ryanodine receptor (RyR2), human, N-terminus residues 1-906 with the CPVT mutation G357S; Mutation made by site-directed mutagenesis in the NT^WT plasmid; a variant reported in patients; also called type II^intra variant; source: HEK293, transiently transfected, in cell homogenate (cross-linking) or CHAPS-solubilized lysate (co-IP)
# Biological target: the molecule itself
# Experiment: cross-linking; HEK293 cell homogenate supernatant (20 ug; 5 mM HEPES, 0.3 M sucrose, 10 mM DTT, pH 7.4) with glutaraldehyde (0.0025% or 260 umol/L) for 0-60 min; SDS-PAGE and Western blot with Ab^cMyc; monomer and tetramer bands by densitometry
row,Protein,stoichiometry N
1,B1,4
2,B2,4
3,B3,4
4,B4,4
